Test results: publication PMC9878632 (ACS Omega, 2023)

Assays:
AUC = biological target: the molecule itself; assay: AUC
crystal structure = biological target: the molecule itself; assay: crystal structure

B1: PYCR1 T171M variant (human Δ1-pyrroline-5-carboxylate reductase 1, Thr171Met) (enzyme, UniProt P32322 1-300, looked up)
chain: MSVGFIGAGQLAFALAKGFTAAGVLAAHKIMASSPDMDLATVSALRKMGVKLTPHNKETVQHSDVLFLAVKPHIIPFILDEIGADIEDRHIVVSCAAGVTISSIEKKLSAFRPAPRVIRCMTNTPVVVREGATVYATGTHAQVEDGRLMEQLLSSVGFCTEVEEDLIDAVMGLSGSGPAYAFTALDALADGGVKMGLPRRLAVRLGAQALLGAAKMLLHSEQHPGQLKDNVSSPGGATIHALHVLESGGFRSLLINAVEASCIRTRELQSMADQEQVSPAAIKKTILDKVKLDSPAGTAL
B1 was tested, and the “stoichiometry N” value (AUC) was 2 and the “stoichiometry N” value (crystal structure) was 10.
